Measured values reported in US20260226133A1 (ANGELES THERAPEUTICS, published 2026).

Key:
[1] = target: T1, CD33 (UniProt P20138 18-364, limits assumed); test: Malibu-Glo assay; NLuc fusion supernatant on HL60 cells, control Jurkat cells
T1 construct: whole, on cells

[2] = target: T2, DLL3 (UniProt Q9NYJ7 27-618, limits assumed); test: Malibu-Glo assay; NLuc fusion supernatant on NCI-H82 cells, control K562 cells
T2 construct: whole, on cells
T2 sequence (looked up): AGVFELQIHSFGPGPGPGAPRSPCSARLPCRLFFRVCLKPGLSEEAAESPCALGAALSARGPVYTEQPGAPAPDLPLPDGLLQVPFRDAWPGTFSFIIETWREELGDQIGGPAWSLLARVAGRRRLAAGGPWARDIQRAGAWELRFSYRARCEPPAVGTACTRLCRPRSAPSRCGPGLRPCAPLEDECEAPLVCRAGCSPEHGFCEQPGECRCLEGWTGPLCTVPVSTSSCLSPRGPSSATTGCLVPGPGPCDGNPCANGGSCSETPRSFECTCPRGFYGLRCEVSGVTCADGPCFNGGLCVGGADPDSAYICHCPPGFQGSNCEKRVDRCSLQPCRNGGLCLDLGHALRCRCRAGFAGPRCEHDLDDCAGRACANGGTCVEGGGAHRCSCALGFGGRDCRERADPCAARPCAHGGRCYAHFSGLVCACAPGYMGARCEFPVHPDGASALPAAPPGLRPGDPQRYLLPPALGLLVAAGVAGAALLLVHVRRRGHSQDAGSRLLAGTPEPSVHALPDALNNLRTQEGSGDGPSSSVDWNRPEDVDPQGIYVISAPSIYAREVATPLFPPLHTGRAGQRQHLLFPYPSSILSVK

[3] = target: T3, IL23R (UniProt Q5VWK5 24-629, limits assumed); test: Malibu-Glo assay; NLuc fusion supernatant on L363 cells, control K562 cells
T3 construct: whole, on cells
T3 sequence (looked up): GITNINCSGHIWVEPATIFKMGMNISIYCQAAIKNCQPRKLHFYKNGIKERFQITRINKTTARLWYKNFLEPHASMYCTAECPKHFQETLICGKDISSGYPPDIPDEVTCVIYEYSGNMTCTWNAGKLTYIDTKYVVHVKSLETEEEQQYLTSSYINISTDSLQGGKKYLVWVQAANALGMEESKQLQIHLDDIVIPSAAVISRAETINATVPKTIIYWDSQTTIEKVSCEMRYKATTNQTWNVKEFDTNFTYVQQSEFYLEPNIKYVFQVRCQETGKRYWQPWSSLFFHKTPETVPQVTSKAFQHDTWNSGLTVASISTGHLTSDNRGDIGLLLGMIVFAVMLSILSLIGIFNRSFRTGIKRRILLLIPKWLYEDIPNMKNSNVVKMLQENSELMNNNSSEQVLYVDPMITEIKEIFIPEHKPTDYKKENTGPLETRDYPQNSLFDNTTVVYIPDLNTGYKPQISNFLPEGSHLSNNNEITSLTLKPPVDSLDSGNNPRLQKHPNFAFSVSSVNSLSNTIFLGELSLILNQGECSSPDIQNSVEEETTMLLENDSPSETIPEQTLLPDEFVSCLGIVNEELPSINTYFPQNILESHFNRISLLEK

[4] = target: T4, TAJ/TNFRSF19 (UniProt Q9NS68 30-423, limits assumed); test: Malibu-Glo assay; NLuc fusion supernatant on LNCaP cells, control 293FT cells
T4 construct: whole, on cells
T4 sequence (looked up): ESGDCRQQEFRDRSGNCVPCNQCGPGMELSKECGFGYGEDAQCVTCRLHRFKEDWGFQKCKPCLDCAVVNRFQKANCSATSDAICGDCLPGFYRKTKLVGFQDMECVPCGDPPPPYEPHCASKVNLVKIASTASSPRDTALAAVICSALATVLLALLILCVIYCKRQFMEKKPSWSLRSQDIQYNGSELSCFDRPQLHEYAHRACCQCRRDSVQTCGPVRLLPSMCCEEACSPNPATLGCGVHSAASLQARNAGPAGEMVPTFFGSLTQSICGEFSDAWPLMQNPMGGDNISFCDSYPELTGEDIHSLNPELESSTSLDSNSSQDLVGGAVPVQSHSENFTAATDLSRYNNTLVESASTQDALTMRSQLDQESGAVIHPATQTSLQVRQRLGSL

[5] = target: T5, BCMA (UniProt Q02223 1-184, limits assumed); test: Malibu-Glo assay; NLuc fusion supernatant on L363 cells, control Jurkat cells
T5 construct: whole, on cells; also called TNF receptor family member B cell maturation (BCMA)
T5 sequence (looked up): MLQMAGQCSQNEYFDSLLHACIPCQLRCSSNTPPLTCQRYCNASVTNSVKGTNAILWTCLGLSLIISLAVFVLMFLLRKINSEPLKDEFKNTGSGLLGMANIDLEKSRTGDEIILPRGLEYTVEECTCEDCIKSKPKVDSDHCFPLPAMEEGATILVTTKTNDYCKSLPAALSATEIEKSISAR

[6] = target: T5, BCMA; test: Malibu-Glo assay; NLuc fusion supernatant on H929 cells, control K562 cells
[7] = target: T6, CD20 (UniProt P11836 1-297, limits assumed); test: Malibu-Glo assay; NLuc fusion supernatant on RAJI cells, control K562 cells
T6 construct: whole, on cells
T6 sequence (looked up): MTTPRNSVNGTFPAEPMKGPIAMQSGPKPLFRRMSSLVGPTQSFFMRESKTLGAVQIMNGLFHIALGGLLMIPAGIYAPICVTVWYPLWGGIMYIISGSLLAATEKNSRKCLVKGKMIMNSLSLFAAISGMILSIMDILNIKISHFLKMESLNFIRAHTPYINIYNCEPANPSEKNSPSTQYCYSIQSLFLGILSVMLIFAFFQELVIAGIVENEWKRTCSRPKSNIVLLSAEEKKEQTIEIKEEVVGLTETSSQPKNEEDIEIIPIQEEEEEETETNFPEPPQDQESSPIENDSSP

[8] = target: T7, STEAP2 (UniProt Q8NFT2 1-490, limits assumed); test: Malibu-Glo assay; NLuc fusion supernatant on LNCaP cells, control K562 cells
T7 construct: whole, on cells
T7 sequence (looked up): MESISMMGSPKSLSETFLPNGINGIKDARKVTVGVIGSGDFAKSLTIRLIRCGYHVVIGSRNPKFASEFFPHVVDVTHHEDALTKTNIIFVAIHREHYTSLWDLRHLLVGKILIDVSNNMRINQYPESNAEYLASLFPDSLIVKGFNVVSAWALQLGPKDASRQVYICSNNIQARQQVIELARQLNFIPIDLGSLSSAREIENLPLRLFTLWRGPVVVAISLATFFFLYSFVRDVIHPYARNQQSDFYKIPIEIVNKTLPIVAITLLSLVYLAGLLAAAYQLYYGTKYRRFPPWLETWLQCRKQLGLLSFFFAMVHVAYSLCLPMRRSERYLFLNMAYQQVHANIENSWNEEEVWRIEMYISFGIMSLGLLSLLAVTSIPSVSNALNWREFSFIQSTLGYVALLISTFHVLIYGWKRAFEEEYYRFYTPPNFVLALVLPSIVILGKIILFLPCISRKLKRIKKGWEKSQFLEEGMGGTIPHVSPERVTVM

[9] = target: T8, MSLN (UniProt Q13421 37-598, limits assumed); test: Malibu-Glo assay; NLuc fusion supernatant on SKOV3 cells, control Jurkat cells
T8 construct: whole, on cells; also called Mesothelin

[10] = target: T9, CD19 (UniProt P15391 20-556, limits assumed); test: Malibu-Glo assay; NLuc fusion supernatant on RAJI cells, control Jurkat cells
T9 construct: whole, on cells
T9 sequence (looked up): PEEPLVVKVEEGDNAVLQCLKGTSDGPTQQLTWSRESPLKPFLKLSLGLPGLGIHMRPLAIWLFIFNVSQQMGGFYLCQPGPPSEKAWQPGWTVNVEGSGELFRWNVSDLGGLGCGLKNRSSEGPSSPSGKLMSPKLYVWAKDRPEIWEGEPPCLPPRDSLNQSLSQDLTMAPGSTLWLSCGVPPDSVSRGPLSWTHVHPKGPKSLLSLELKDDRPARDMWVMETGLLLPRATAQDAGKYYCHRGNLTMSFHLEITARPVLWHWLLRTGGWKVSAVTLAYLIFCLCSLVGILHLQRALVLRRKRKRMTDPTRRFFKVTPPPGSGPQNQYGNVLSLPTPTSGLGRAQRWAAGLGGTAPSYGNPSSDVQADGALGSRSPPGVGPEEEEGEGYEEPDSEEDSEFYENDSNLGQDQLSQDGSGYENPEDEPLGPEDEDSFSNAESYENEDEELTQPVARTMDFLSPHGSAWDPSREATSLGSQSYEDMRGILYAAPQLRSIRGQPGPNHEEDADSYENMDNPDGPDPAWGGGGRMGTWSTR

T8 sequence (Q13421 other isoform, or with tags, fused parts or gaps limits assumed): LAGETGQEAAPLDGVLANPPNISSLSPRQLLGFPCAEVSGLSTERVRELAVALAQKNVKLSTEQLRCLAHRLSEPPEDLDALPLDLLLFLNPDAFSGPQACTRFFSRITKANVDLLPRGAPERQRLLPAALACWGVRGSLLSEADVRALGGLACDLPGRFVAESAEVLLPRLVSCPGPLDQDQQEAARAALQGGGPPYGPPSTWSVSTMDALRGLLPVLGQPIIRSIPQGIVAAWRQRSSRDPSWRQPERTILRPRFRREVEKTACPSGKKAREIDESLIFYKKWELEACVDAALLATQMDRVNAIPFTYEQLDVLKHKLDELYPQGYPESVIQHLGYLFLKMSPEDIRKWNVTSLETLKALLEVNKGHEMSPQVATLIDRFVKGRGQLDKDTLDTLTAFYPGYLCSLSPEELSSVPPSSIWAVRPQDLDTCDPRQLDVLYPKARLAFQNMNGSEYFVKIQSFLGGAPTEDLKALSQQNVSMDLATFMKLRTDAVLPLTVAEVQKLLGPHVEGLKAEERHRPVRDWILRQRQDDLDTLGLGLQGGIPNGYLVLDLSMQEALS
T1 sequence (P20138 18-364 limits assumed): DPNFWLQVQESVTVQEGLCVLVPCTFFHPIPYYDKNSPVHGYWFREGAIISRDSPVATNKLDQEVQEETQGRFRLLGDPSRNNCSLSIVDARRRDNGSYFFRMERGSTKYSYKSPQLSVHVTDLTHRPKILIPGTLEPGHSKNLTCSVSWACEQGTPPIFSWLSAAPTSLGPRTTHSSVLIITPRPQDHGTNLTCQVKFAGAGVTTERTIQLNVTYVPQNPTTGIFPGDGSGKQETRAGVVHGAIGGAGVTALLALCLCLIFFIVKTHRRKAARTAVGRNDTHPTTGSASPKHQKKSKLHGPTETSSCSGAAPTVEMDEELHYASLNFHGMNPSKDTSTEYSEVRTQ

B1: AT264-S30G vHH (CD33), NLuc fusion (VHH)
VHH: EVQLVESGGGSVQAGGSLRLSCAASGYTYGINCMGWFRQAPGKEREGVAVISTGGGRTDYRDSVKGRFTISQDNAKNTVYLQMNSLKPEDTAMYYCAGKTTYPGYGCGLGRSAYNYWGQGTQVTVSS
Fold Change (Luc activity, target cell line over control cell line) [1]: 28 fold

B2: DLL3-USC5 vHH (DLL3), NLuc fusion (VHH)
VHH: QVQLVESGGGVVQPGGSLRLSCAASFSGYGVSTMAWFRQAPGKGLEGVAAITVGSGNTYYADSVKGRFTISRDNSKNTVYLQMNSLRAEDTAMYYCAVGWLSGGSWHVPGRYNYWGQGTLVTVSS
Fold Change (Luc activity, target cell line over control cell line) [2]: 1.7 fold

B3: IL23R-SANG-11 scFv (IL23R), NLuc fusion (scFv)
chain: DIQMTQSPSSLSASVGDRVTITCQASENIYSFLAWYQQKPGKAPKLLIYSASKLAAGVPSRFSGSGSGTDFTLTISSLQPEDFATYYCQQTNRYSNPDIYNVFGQGTKLTVLGGGGGSGGGGSGGGGSEVQLVESGGGLVQPGGSLRLSCAASGIDFNSNYYMCWVRQAPGKGLEWIGCIYVGSHVNTYYANWAKGRFTISRDNSKNTVYLQMNSLRAEDTAVYYCATSGSSVLYFKFWGQGTLVTVSS
Fold Change (Luc activity, target cell line over control cell line) [3]: 2.37 fold

B4: KN5-USC1-R3D scFv (TAJ), NLuc fusion (scFv)
chain: QIVLTQSPAIMSASPGEKVTMTCSASSSVSFMHWYQQKSGTSPKRWIYDTSTLASGVPARFGGSGSGTSYSLTISSMEAEDAATYYCQQWSSNPLTFGAGTKLELKRGGGGSGGGGSGGGGSQVQLQQSGPELVKPGASVRISCKASGYTFTSYYIHWVKQRPGQGLEWIGWIYPGNLNTKYNEKFKGKATLTADKSSSTAYMQLSSLTSEDSAVYFCARYDWYFDVWGAGTTVTVSS
Fold Change (Luc activity, target cell line over control cell line) [4]: 4.35 fold

B5: hu-E59D-US3 vHH (BCMA), NLuc fusion (VHH)
VHH: EVQLVESGGGLVQPGGSLRLSCAASGRTFTMGWFRQAPGKGREFVAAISLSPTLAYYADSVKGRFTISRDNSKNTVVLQMNSLRAEDTAVYYCAADRKSVMSIRPDYWGQGTQVTVSS
Fold Change (Luc activity, target cell line over control cell line) [5]: 2 fold

B6: E59D-USC1 vHH (BCMA), NLuc fusion (VHH)
VHH: QVQLVESGGGLVQPGGSLRLSCAASGRTFTMGWYRQAPGKGLEFVSAISLSPTLAYYADSVKGRFTISRDNSKNTVVLQMNSLRAEDTALYYCAADRKSVMSIRPDYWGQGTLVTVSS
Fold Change (Luc activity, target cell line over control cell line) [6]: 2.57 fold

B7: huE59D-AT2 vHH (BCMA), NLuc fusion (VHH)
VHH: EVQLVESGGGLVQPGGSLRLSCAASGRTFTMGWYRQAPGKEREFVAAISLSPTLAYYADSVKGRFTISRDNSKNTVVLQMNSLRAEDTALYYCAADRKSVMSIRPDYWGQGTLVTVSS
Fold Change (Luc activity, target cell line over control cell line) [6]: 2.99 fold

B8: huCD20-AT1 vHH (CD20), NLuc fusion (VHH)
VHH: EVQLLESGGGLVQPGGSLRLSCAASGRTFSMGWYRQAPGKGLEFVSAITYSGGSPYYADSVKGRFTISRDNSKNTVYLQMNSLRAEDTAVYYCAANPTYGSDWNAENWGQGTLVTVSS
Fold Change (Luc activity, target cell line over control cell line) [7]: 15.6 fold

B9: STEAP2-RGN-1162-USC1 scFv (STEAP2), NLuc fusion (scFv)
chain: QVQLQQSGPGLVKPSQTLSLTCAISGDSVSSNRAAWNWIRQSPSRGLQWLGRTYYRSKWYNDYAVSLRSRITINPVTSKNQVALHMNSVTPEDTAVYYCARAGIVVVPGPETFYYYDHGLDVWGQGTTVTVSSGGGGSGGGGSGGGGSDIQMTQSPSSLSASVGDRVTITCRASQSIRNYLNWYQQKPGKAPELLIHAASSLQSGVPSRFSGSGSGTDFTLTISSLQPEDFASYYCQQSYSAPPITFGQGTRLEIK
Fold Change (Luc activity, target cell line over control cell line) [8]: 27.4 fold

B10: AT2-K65R vHH (MSLN), NLuc fusion (VHH)
VHH: QVQLVESGGGVVQPGGSLRLSCAASGLSFSTYTVAWFRQAPGKGLEGVAAIPYTSQHMVYTDSVRGRFTISRDNSKNTLYLQMNSLRAEDTAVYYCATDRRPGTSMLAINGYNRWGQGTTVTVSS
Fold Change (Luc activity, target cell line over control cell line) [9]: 11.5 fold

B11: hu-mROO5-1 scFv (CD19), NLuc fusion (scFv)
chain: DIQMTQSPSSLSASVGDRVTITCKASDHINNWLAWYQQKPGQAPKLLIYGATTLETGVPSRFSGSGSGTDYTLTISSLQPEDFATYYCQQSWNTPWTFGQGTKLEIKRGGGGSGGGGSGGGGSQVQLQQPGAELVKPGASVKMSCKASGYAFSSYWINWMKQKPGQGLEWIGQIYPGDGDTNYNGKFKGRATLTADTSSSTAYMQLSSLTSEDSAVYFCARSITTVVGCAMDYWGQGTSVTVSS
Fold Change (Luc activity, target cell line over control cell line) [10]: 933 fold
